What was measured:
SORT1 = target: T1, SORT1 (Homo sapiens, UniProt Q99523); assay: FP competition binding assay
T1 construct: Human SORT1 (78-755)-His (Acrobiosystems); His (C); purchased Acrobiosystems SON-H52H5
T1 sequence (Q99523 78-755): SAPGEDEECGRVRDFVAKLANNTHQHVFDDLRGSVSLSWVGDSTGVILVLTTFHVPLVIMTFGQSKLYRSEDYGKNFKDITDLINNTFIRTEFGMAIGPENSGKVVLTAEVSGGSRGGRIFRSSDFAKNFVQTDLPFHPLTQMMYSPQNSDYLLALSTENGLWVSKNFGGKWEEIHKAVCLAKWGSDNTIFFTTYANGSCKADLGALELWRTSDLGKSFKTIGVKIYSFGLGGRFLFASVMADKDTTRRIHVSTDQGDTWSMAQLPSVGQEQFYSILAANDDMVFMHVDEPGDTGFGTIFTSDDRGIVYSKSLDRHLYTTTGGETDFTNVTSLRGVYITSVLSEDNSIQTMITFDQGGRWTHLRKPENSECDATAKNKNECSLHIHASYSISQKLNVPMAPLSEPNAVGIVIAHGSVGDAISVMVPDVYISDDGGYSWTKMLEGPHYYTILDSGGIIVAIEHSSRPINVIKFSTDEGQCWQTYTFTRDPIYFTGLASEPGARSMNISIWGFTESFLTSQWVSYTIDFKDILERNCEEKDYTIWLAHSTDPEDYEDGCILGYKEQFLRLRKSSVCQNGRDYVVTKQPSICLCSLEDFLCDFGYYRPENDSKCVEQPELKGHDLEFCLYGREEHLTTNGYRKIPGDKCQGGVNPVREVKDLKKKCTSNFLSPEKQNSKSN
Protocol: Competition binding studies were conducted in a similar manner to the direct binding protocol. Unlabeled peptides were prepared with a 12-point, two-fold dilution series in a V-bottom 96-well plate for a total volume of 25 uL with a starting concentration of 50 μM. A 10× working stock of the FAM labeled peptide was prepared as described for the Direct binding experiment.
A 500 nM working solution (EC80) of target protein was prepared in the FP buffer (1×PBS, pH 7.4, 0.1% Tween-20). An aliquot of 20 μL of the 500 nM working solution was then added to 2.5 μL of the FAM-peptide, after which 2.5 μL of the unlabeled peptide dilution series was added and mixed by pipetting in a V-bottom 96-well plate. […] The 384-well plate was then centrifuged 1 min, 4000 rpm and fluorescence and polarization of dye measured on a Biotek Synergy Neo2 plate reader using the same settings as for the Direct Binding experiment. Data were then fitted to a One site—Fit log IC50 curve in GraphPad to calculate the IC50.
The various conjugates were evaluated in a competitive fluorescence polarization study as described elsewhere herein.

[1] = Maximum tolerated dose (MTD) study; format: in vivo, mouse
Protocol: BALB/c Nude mice, female, 6-8 weeks, weighing approximately 18-22 g were purchased from the Shanghai SLAC Laboratory Animal Co., LTD. MTD studies were conducted at WuXi AppTec and the care and use of animals was conducted in accordance with the regulations of the Association for Assessment and Accreditation of Laboratory Animal Care (AAALAC). Two MTD studies were performed (a) a low dose study with doses ranging from 0.1, 0.5, 1 and 3 mg/kg and (b) a high dose study with doses ranging from 3, 5, 10 mg/kg. Dosing volume was determined based on body weight (10 ul/g) and PDCs were dissolved in 25 mM Histidine 10% sucrose pH 7 and administered i.v. at a single dose at day 0. The treatment and observation were conducted up to 7 days and MTD was defined by ≥20% body weight loss. Body weights were measured daily, death and observed clinical signs were recorded.
Doses of 3, 5, and 10 mg/kg were administered. MTD was defined by ≥20% body weight loss and body weight measured daily.

MDA-MB-231 xenograft = assay: MDA-MB-231 murine xenograft efficacy model; format: in vivo, mouse
Method in brief: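 Female BALB/c nude mice bearing subcutaneous MDA-MB-231 tumours (10×10^6 cells in PBS/Matrigel), treated from ~150-200 mm^3 mean volume. Free MMAE given i.v. QW×4 at 0.6 or 0.06 mg/kg in 25 mM histidine/10% sucrose pH 7. Caliper volumes twice weekly; TGI (%) calculated against vehicle group.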

CC[C@H](C)[C@@H]([C@@H](CC(=O)N1CCC[C@H]1[C@H](OC)[C@@H](C)C(=O)N[C@H](C)[C@@H](O)c1ccccc1)OC)N(C)C(=O)[C@@H](NC(=O)[C@H](C(C)C)N(C)C(=O)OCc1ccc(NC(=O)[C@H](CCCNC(N)=O)NC(=O)[C@@H](NC(=O)CCCC(=O)NCCC(=O)N(C)CC(=O)N(C)CC(=O)N(C)CC(=O)N(C)CC(=O)N[C@@H](C)C(=O)N2CCC[C@H]2C(=O)N[C@@H](CCCNC(=N)N)C(=O)N[C@@H](Cc2c[nH]c3ccccc23)C(=O)N[C@@H](CC(=O)O)C(=O)N[C@@H](C)C(=O)N2CCC[C@H]2C(=O)N[C@@H](CC(C)C)C(=O)N[C@@H](CCCNC(=N)N)C(=O)N[C@@H](CC(=O)O)C(=O)N2CCC[C@H]2C(=O)N[C@@H](C)C(=O)N[C@@H](CC(C)C)C(=O)N[C@@H](CCCNC(=N)N)C(=O)N[C@@H](CCC(N)=O)C(=O)N[C@@H](CC(C)C)C(=O)N[C@@H](CC(C)C)C(=O)O)C(C)C)cc1)C(C)C [PRGN_WT_PDC]
increase in affinity relative to parent homing peptide (SORT1): ~2.5 ×
sustained body weight loss ([1]; 5 mg/kg i.v. single dose, after 48 hrs, recovered at Day 7): ~15%
toxicity ([1]; 10 mg/kg i.v. single dose): significant toxicity
body weight loss ([1]; 10 mg/kg i.v. single dose, after 48 hrs, BALB/c nude mice): greater than 20%
tumor growth inhibition, dose dependence (MDA-MB-231 xenograft; 3, 1, 0.3 mg/kg i.v. QW×4): dose-dependent tumor growth inhibition
body weight variation (Example 6) (MDA-MB-231 xenograft; PDC at each dose, free MMAE at equivalency to 3 mg/kg PDC): mirrored that observed with vehicle treatment
body weight loss (Example 8) (MDA-MB-231 xenograft; PDCs 3 mg/kg, free MMAE at molar equivalency (0.6 mg/kg)): body weight loss tracked each other
